# According to the nanobody polyreactivity screen of Harvey et al. (2022):
# Assay: yeast display, Sf9 membrane polyspecificity reagent, FACS + sequencing; frameworks hold sequencing errors
# Outline: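 After 36–48 hours of galactose induction, yeast (Saccharomyces cerevisiae BJ5465) displaying a synthetic nanobody library were stained at 4 °C for 1 hour with 10% biotinylated, detergent-solubilized Sf9 membrane reagent. Streptavidin microbeads enriched the stained cells before FACS sorting into low and high (top ~1%) gates on anti-HA and streptavidin fluorescence. Each clone's polyreactivity label reflects its gate of origin.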
row,Sequence,polyreactivity (PSR sort gate)
1,QEQLVESGGGLVQAGGSLRLSCAASGFTFWYYAMGWYRQAPGKEREFVAAISLGGGRTYYADSVKGRFTHSRDNAKNTVYLQMNSLKPEDTAVYYCAVDSGTYRSYRYDYCGQGTQVTVSS,high polyreactivity
2,QEQLVESGGGLVQAGGSLRLSCAASGSIQPNAMGWYRQAPGKEREFVAAISRSGASTYYADSVKGRFTISRDNAKNTVYLQMNSLKPADTAVYYCAADFYYYNNNDYDYWGQGTQVTVSS,high polyreactivity
3,QEQLVESGGGLVQAGGSLRLSCAPSGSIMYVYAMGWYRPAPGKERELVAVITSGGSTTYADSVKGRFTMSRDNAKNTVYLQMNSLKPEDTAVYYCAAVPYSVYGGDYWGQGTQVTVSS,low polyreactivity
4,QFHLVESGGGLVQAGGSLRLTCAASGRTFAYYAMGWYRQAPGKEREMVAGITRNGGSTYYADSVKGRFTISRDNAKNTVYLQMNSLKPEDTAVYYCAAGFTTRRGEYNYWGKGTQVTVSS,high polyreactivity
5,QFHLVETGRGLVQAGGSLRLSCAASGVTYSQYAMGWYRQAPGKERELVARISRRRGSTSYADSVKGRCTISRDNAKNTVYLQMNRMKPEDTAVYYCAKDSPSVYPGRFGNTGGYAYDYWGQGTQVTVSS,high polyreactivity
6,QFKLVESGGVLVKEGGRLRLICAASGSTFDENDMGRYRQAPGKEMEIVAVIYIGTSTNYADSVKGRFTISRDNAKNTVYLQMNSLKPEDTAVYYCAADVPGSYLVAIVGNAFNYWGQGTQVTVSS,low polyreactivity
7,QFQHVESGGGLVQAGGSLRLSCAASGNTFYVYAMGWYRQAPGKERELVAGITTSGGSTYYADSVKGRFTISRDNAKNTVYLQMNSLKTEDTAVYYCATDISTSYYYKYSSFYQYDSWGQGTQVTVSS,low polyreactivity
8,QFQLEESGGGLVQAGGSIRLSCAASGFILDSYGMGWYRQAPGTERELVAAISQSDVSTYYADSVNGRYTISRDNAKNTVYLHMNSLKPEDTAVYYCAADRGGLRWFWQVLFDYWGQGTQVTVSS,low polyreactivity
9,QFQLEESGGGLVQAGGSLRLSCAASGITFRRYTMGWYRQAPGKERELVATISLSDGNTYYADSVKGRFTISRDNAKNTVYYQMNSLKPEDTAVYYCNARHTWHQTYDYWGQGTQVTVSS,low polyreactivity
10,QFQLEESGGGLVQAGGSLRLSCAASGSTFLRYAMGWYRQAPGKERELVAAITGRGTRTYYADSVKGRFTISRDNAKNTVYLQMNSLKPEDTAVYYCAAELSFTPRYYEGRIFYYWGQGTQVTVSS,high polyreactivity
11,QFQLLDSGGGLVQAGGSLRLSSAPSGFTIIGYDMGWYRQAPVKERELVAAIDWSGGSTYYADSVKGRFTISRDNAKYSVDLQMHSLKPEDTAVYYCNAEWSSKRFTGDDYWGQGTQVTVSS,low polyreactivity
12,QFQLLESGGGLVQAGGSLRLICAASGFICSLYAMGWYRPAPGKERELVATINRRGTSTFYADSVKGRFTISRDNAKNTVYLQMNSLKPEDTAVYYCNAYPGAAIRSTGRYDYWGQGTQVTVSS,low polyreactivity
13,QFQLVDSVRGLVQAGVSLRLSCAASGRIFVKYVIGSYRQAPGTESQLVAANRSYGGSPYYADSVKGRFTISRDNAKNTVYLQMNSLKPEDTAVYYCAKRLHYSAPRYTEYDEWGHGTQVTVSS,high polyreactivity
14,QFQLVESCGGLVQAGGSLRLSCAASGPIFKSNAMGCYRQAPGKERELVAAISGSGGRTYYAHSVKGRFTISRDNANNTVYLQMNSLKPEDTAVYYCNAGGSYYARGMDYWGQGTQVTVSS,high polyreactivity
15,QFQLVESGGCLVQAGGSLRISSASSGSTLANYAMGWYRQAPGKEREFVAAINSGGSTYYADSVKGRFTISRDIAKNTVYLQMNSLKPEDTAVYYCAARYASPRYKSKMDYWGQGTQVTVSS,high polyreactivity
16,QFQLVESGGGFVQAGGSLRLSGASSGIIFLANAMVWYRQSPGKEREFVAAISRSGSRTYDADSVKGRFTISRDHAKNSVYLQMNSVKPEDTAVYYCAAESPVLYYWGQGTQVTVSS,high polyreactivity
17,QFQLVESGGGLDQAGGSLRLSCAASGFTLNRNAMGWYRQAPGKETELVAAITRGGRTYYADSVKGRFTISRDNAKNTVYLQMNSLKPEDTAVYYCARTVGYRTLLESDSWGQGTQVTVSS,high polyreactivity
